The source of these data is US7740882B2, “Enhanced oral and transcompartmental delivery of therapeutic or diagnostic agents” (priority 2001, dated 2010).

For data set [1], the system named is differentiated HL-60 cells. In words: Intracellular calcium assay (45Ca release from intracellular stores). Type of data set: cell-based, human. As to conditions: for EC50: differentiated HL-60 cells, calcium release, read-out: Cell Activation EC50. Here is the method: Intracellular Calcium Assay. HL-60 cells (2×10^5 cells/mL) were grown in the presence of 1.3% DMSO for 5 days. For each time course experiment, 2×10^6 cells were resuspended in 5 mL of HBSS containing 2 mCi/mL of ^45CaCl2 as the sole source of calcium. After 90 min incubation at 37° C., cells were washed twice as above with cold HBSS. […] Cell pellets were treated with 0.5% Triton X-100/0.1 M NaOH and centrifuged in tubes containing 0.3 mL of 10% sucrose and radioactivity associated with the pellets was measured; this represents vesicle-associated ^45Ca. The top portion of the tube, which contained the cytoplasmic ^45Ca was also measured.

For data set [2], the target named is T1, fMLF receptor on differentiated HL-60 cells (Homo sapiens, UniProt P21462).
T1 construct: endogenous in cells; host or cells: HL-60 cells differentiated with 1.3% DMSO for 48 h; whole cells
T1 sequence (P21462 1-350): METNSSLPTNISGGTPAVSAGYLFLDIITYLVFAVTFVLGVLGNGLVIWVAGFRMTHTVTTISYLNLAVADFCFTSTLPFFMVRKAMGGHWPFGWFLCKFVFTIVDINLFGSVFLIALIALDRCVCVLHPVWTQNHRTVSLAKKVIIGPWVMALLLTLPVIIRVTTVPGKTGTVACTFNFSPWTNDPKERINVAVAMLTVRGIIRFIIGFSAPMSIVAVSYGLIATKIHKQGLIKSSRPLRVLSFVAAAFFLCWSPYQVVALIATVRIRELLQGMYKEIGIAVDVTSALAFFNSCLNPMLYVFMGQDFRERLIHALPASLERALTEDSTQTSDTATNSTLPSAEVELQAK
Description: Competitive receptor binding assay with fML[3H]F. The settings on record: for Avidity Activation EC50/Kd: ratio of EC50 (calcium) to Kd.

For a further data set, the target named is T2, SMVT in BBMECs (Bos taurus, UniProt A1L530).
T2 construct: endogenous in cells; host or cells: primary bovine brain microvessel endothelial cells (BBMECs)
T2 sequence (A1L530 1-638): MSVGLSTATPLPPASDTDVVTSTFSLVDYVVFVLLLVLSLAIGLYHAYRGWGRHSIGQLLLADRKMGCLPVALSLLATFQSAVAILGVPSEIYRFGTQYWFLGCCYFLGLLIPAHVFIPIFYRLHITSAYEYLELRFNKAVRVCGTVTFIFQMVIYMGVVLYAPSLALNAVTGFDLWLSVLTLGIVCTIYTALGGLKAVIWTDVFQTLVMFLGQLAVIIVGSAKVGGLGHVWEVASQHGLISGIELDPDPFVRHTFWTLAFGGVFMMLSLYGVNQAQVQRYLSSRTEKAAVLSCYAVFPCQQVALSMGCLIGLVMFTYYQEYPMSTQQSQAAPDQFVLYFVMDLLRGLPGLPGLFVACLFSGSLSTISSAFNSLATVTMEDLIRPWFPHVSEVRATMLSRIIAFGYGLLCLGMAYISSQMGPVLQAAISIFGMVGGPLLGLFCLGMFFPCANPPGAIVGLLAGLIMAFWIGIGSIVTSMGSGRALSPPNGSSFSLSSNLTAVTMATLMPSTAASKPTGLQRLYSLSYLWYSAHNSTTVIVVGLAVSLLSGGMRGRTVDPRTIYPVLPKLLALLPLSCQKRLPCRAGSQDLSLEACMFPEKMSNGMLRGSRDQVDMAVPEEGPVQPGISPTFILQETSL
Description: Biotin uptake by BBMECs (characterization of biotin transporter). The data set is classed as in vitro ADME, bovine.

The target in the next data set is T3, SMVT (Homo sapiens, UniProt Q9Y289).
T3 sequence (Q9Y289 1-635): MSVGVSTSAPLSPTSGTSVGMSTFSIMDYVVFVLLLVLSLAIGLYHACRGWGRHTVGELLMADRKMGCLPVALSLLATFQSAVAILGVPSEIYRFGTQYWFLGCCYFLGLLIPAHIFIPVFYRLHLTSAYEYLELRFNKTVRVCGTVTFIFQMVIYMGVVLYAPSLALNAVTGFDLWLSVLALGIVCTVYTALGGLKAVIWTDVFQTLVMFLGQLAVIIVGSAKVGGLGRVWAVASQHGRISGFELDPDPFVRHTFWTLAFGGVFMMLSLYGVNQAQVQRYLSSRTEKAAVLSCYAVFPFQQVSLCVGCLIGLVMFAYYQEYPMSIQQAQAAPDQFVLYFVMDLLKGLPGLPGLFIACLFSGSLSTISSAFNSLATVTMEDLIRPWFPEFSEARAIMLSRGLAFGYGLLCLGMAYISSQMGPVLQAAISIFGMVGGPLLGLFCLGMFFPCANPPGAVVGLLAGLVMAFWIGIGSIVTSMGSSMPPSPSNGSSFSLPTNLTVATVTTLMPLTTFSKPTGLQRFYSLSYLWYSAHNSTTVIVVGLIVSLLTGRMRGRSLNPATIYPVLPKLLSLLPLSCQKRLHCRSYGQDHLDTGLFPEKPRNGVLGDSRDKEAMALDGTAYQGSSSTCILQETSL
In words: Inhibition of substrate uptake in CHO/hSMVT cells by 50 μM SMVT substrates. More on the design: expressed in transfected cells; host or cells: CHO cells (ATCC), transient Lipofectamine transfection; plasmid was a gift of Dr. Puttur D. Prasad. As to conditions: for inhibition of RI-K(biotin)-Tat9 uptake: 0.1 μM RI-K(biotin)-Tat9, inhibitor 50 μM; for inhibition of biotin-PEG-3400 uptake: 0.1 μM biotin-PEG-3400, inhibitor 50 μM; for inhibition of PEG:(RI-K(biotin)-Tat9)8 uptake: 0.1 μM conjugate, inhibitor 50 μM. Type of data set: in vitro ADME.

Another data set concerns Caco-2 cell monolayers. In words: Absorptive (AP to BL) transport across Caco-2 cell monolayers. The settings on record: Caco-2 AP to BL.
The nature of a further data set: in vitro. The settings on record: human, Caco-2.
Substrate in data set [3]: O=C(O)CCCC[C@@H]1SC[C@@H]2NC(=O)N[C@@H]21
In words: cells, lysate or membranes named. As to conditions: 37° C.

The mark [4] stands for this setting: Kd multiplied by average number of fMLF moieties, read-out: Relative Avidity Kd/fMLP.
[5] abbreviates: differentiated HL-60 cells, competition with fML[3H]F, read-out: Avidity Kd.

“Also recorded” adds a separate entry of the source. Like-named read-outs stand apart in the source and are kept apart here.

Turning to “B4-PEG-fMLF4: 4-arm branched amino-PEG fully coupled with fMLF”, the EC50 in data set [1] was 5 nM. Further, the Kd in data set [2] (setting [4]) was found to be 3.2 nM; in data set [2] (setting [5]), 0.8 nM. Further, in data set [2], the “Avidity Activation EC50/Kd” value is on record as 6.25.
As for “B8-PEG-fMLF8: 8-arm branched amino-PEG with 8 fMLF residues per polymer”, in data set [1] (at 1 nM), the cellular activation entry is “little or no cellular activation”. Further, the EC50 in data set [1] is 5 nM. Also, in data set [2], the “increase in avidity over B8-PEG-fMLF1.1” value is listed as “more than 1000 fold” and the “Avidity Activation EC50/Kd” value was 27.8. In data set [2] (setting [4]), the Kd came to 1.44 nM. Further, in data set [2] (at 1 nM), the fMLF receptors occupied is listed as about 100%. Besides, the Kd in data set [2] (setting [5]) is 0.18 nM.
As to `N=C1N[C@H]2[C@H](CS[C@H]2CCCCC(=O)O)N1` [iminobiotin], the “inhibition of biotin uptake” value at SMVT in BBMECs was “very weak”.
As to `N[C@@H]1[C@H](CCCCC(=O)O)SC[C@@H]1N` [diaminobiotin], on SMVT in BBMECs, the “inhibition of biotin uptake” value is “very weak”.
Regarding `C[C@@H]1NC(=O)N[C@@H]1CCCCCC(=O)O` [desthiobiotin], on SMVT in BBMECs, the “inhibition of biotin uptake” value was “inhibited the uptake of biotin significantly”. Besides, on SMVT, the “inhibition of RI-K(biotin)-Tat9 uptake” value was “significantly inhibited; also recorded: significantly lowered (p<0.001)”, the “inhibition of biotin-PEG-3400 uptake” value is listed as “significantly (p<0.01) inhibited” and the “inhibition of PEG:(RI-K(biotin)-Tat9)8 uptake” value was “significantly lower (p<0.05)”.
As to “B8-PEG-fMLF5.5: 8-arm branched amino-PEG with on average 5.5 fMLF residues per polymer”, the EC50 in data set [1] worked out at 5.3 nM. In addition, the Kd in data set [2] (setting [4]) was determined as 2.75 nM; in data set [2] (setting [5]), 0.5 nM. Also, the “Avidity Activation EC50/Kd” value in data set [2] came to 10.6.
On to “B3-PEG-fMLF3: 3-arm branched amino-PEG fully coupled with fMLF”, for which the EC50 in data set [1] was determined as 9.6 nM. The Kd turned out to be 5.7 nM in data set [2] (setting [4]) and 1.9 nM in data set [2] (setting [5]). Further, the “Avidity Activation EC50/Kd” value in data set [2] was 5.05.
For `OC[C@@H](O)[C@@H](O)[C@H](O)[C@H](O)CO` [mannitol], the “absorptive/effective permeability (Pe)” value with Caco-2 cell monolayers is given as 1.42 (±0.28)×10^−6 cm/sec. Moreover, the Papp A→B at 105 min in “in vitro” turned out to be 2.12 ×10⁻⁶ cm/s.
Take “PEG/A-fMLF4: linear PEG-aspartate copolymer (29 kDa) with four fMLF residues”: the values for the Kd in data set [2] (setting [4]) and in data set [2] (setting [5]) were 4.4 nM and 1.1 nM, respectively.
For `CC(C)(CO)[C@@H](O)C(=O)NCCC(=O)O` [pantothenic acid], the “inhibition of biotin uptake” value at SMVT in BBMECs was “inhibited the uptake of biotin significantly”. On SMVT, the “inhibition of RI-K(biotin)-Tat9 uptake” value was “significantly inhibited”, the “inhibition of biotin-PEG-3400 uptake” value is recorded as “significantly (p<0.01) inhibited” and the “inhibition of PEG:(RI-K(biotin)-Tat9)8 uptake” value is “significantly lower (p<0.05)”.
For “B8-PEG-fMLF1.1: 8-arm branched amino-PEG with on average 1.1 fMLF residues per polymer”, the calcium flux entry in data set [1] (even at 100 nM polymer) is “virtually no flux of calcium”. Besides, the Kd in data set [2] (setting [4]) was found to be 209 nM; in data set [2] (setting [5]), 190 nM.

B1: SMVT in BBMECs (Bos taurus) (protein)
chain: T2 sequence (A1L530 1-638)
Regarding B1, the Km in data set [3] (other: BBMECs) is 54.6 µM.

B2: human sodium dependent multivitamin transporter, hSMVT (Homo sapiens) (protein)
chain: T3 sequence (Q9Y289 1-635)
As to B2, the Km in data set [3] (other: uptake in CHO/hSMVT cells, 10 min, pH 7.5) is given as 1.39 (0.59) μM.
